# Source: the supplement of paper PMC10567573
# B1: INTS4 (parent)
# chain: IRLVDDAFGKICHMVSDGSWVVRV
# B2: ZNF8 (parent)
# chain: RTHTGEKPYTCSVCGKSFSRTTCL
# Variants of: B1
# Assay: protein stability index of a GFP-peptide fusion (GPS, HEK-293T) (PSI 1-6); higher = more stable
# Conditions: c terminus: a fixed tail appended
# 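Also: lentivirally expressed fusions sorted by FACS into six bins by GFP to DsRed ratio, PSI derived from sequencing read proportions per bin multiplied by bin number.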
row,Variant,protein stability index
1,IRLTDDAFGKICHMVSDGSWVVRV,1.88
2,IRLMDDAFGKICHMVSDGSWVVRV,4.21
3,IRLADDAFGKICHMVSDGSWVVRV,3.46
4,IRLKDDAFGKICHMVSDGSWVVRV,3.23
5,IRLNDDAFGKICHMVSDGSWVVRV,1.36
6,IRLLDDAFGKICHMVSDGSWVVRV,4.43
7,IRLRDDAFGKICHMVSDGSWVVRV,1.47
8,IRLSDDAFGKICHMVSDGSWVVRV,2.82
9,IRLFDDAFGKICHMVSDGSWVVRV,2.26
10,IRLPDDAFGKICHMVSDGSWVVRV,2.57
11,IRLIDDAFGKICHMVSDGSWVVRV,3.33
12,IRLYDDAFGKICHMVSDGSWVVRV,2.46
13,IRLCDDAFGKICHMVSDGSWVVRV,2.16
14,IRLVDDAGGKICHMVSDGSWVVRV,1.6
15,IRLVDDAYGKICHMVSDGSWVVRV,2.45
16,IRLVDDARGKICHMVSDGSWVVRV,2.46
17,IRLVDDAEGKICHMVSDGSWVVRV,3.82
18,IRLVDDAKGKICHMVSDGSWVVRV,2.31
19,IRLVDDAMGKICHMVSDGSWVVRV,2.69
20,IRLVDDADGKICHMVSDGSWVVRV,4.44
21,IRLVDDAHGKICHMVSDGSWVVRV,2.19
22,IRLVDDAPGKICHMVSDGSWVVRV,2.54
23,IRLVDDAQGKICHMVSDGSWVVRV,2.5

row,Variant,protein stability index
1,IRLVDDAWGKICHMVSDGSWVVRV,3.06
2,IRLVDDAIGKICHMVSDGSWVVRV,2.78
3,IRLVDDACGKICHMVSDGSWVVRV,2.59
4,IRLVDDASGKICHMVSDGSWVVRV,3.94
5,IRLVDDDFGKICHMVSDGSWVVRV,2.86
6,IRLVDDLFGKICHMVSDGSWVVRV,3.62
7,IRLVDDGFGKICHMVSDGSWVVRV,2.95
8,IRLVDDSFGKICHMVSDGSWVVRV,4.46
9,IRLVDDKFGKICHMVSDGSWVVRV,2.09
10,IRLVDDFFGKICHMVSDGSWVVRV,2.22
11,IRLVDDMFGKICHMVSDGSWVVRV,2.62
12,IRLVDDWFGKICHMVSDGSWVVRV,3.37
13,IRLVDRAFGKICHMVSDGSWVVRV,2.21
14,IRLVDMAFGKICHMVSDGSWVVRV,3.24
15,IRLVDNAFGKICHMVSDGSWVVRV,4.84
16,IRLVDLAFGKICHMVSDGSWVVRV,1.98
17,IRLVDWAFGKICHMVSDGSWVVRV,2.88
18,IRLVDGAFGKICHMVSDGSWVVRV,2.84
19,IRLVDQAFGKICHMVSDGSWVVRV,4.08
20,IRLVDTAFGKICHMVSDGSWVVRV,3.69
21,IRLVDEAFGKICHMVSDGSWVVRV,3.96
22,IRLVDVAFGKICHMVSDGSWVVRV,2.35
23,IFLVDDAFGKICHMVSDGSWVVRV,4.79

row,Variant,protein stability index
1,IMLVDDAFGKICHMVSDGSWVVRV,2.78
2,ISLVDDAFGKICHMVSDGSWVVRV,2.96
3,IVLVDDAFGKICHMVSDGSWVVRV,4.66
4,IALVDDAFGKICHMVSDGSWVVRV,3.67
5,IRLVPDAFGKICHMVSDGSWVVRV,2.53
6,IRLVKDAFGKICHMVSDGSWVVRV,3.01
7,IRLVTDAFGKICHMVSDGSWVVRV,3.23
8,IRLVCDAFGKICHMVSDGSWVVRV,3.07
9,IRLVYDAFGKICHMVSDGSWVVRV,3.78
10,IRLVVDAFGKICHMVSDGSWVVRV,2.32
11,IRLVIDAFGKICHMVSDGSWVVRV,2.67
12,IRLVGDAFGKICHMVSDGSWVVRV,3.16
13,IRLVFDAFGKICHMVSDGSWVVRV,4.33
14,IRLVLDAFGKICHMVSDGSWVVRV,3.22
15,IRLVADAFGKICHMVSDGSWVVRV,2.73
16,IRLVSDAFGKICHMVSDGSWVVRV,2.3
17,IRLVRDAFGKICHMVSDGSWVVRV,1.8
18,IRCVDDAFGKICHMVSDGSWVVRV,1.72
19,IRVVDDAFGKICHMVSDGSWVVRV,3.33
20,IRFVDDAFGKICHMVSDGSWVVRV,2.76
21,IRHVDDAFGKICHMVSDGSWVVRV,2.17
22,IRIVDDAFGKICHMVSDGSWVVRV,3.47
23,IRWVDDAFGKICHMVSDGSWVVRV,1.97

row,Variant,protein stability index
1,IRRVDDAFGKICHMVSDGSWVVRV,2.08
2,IREVDDAFGKICHMVSDGSWVVRV,3.14
3,IRAVDDAFGKICHMVSDGSWVVRV,3.09
4,IRLVDDAFFKICHMVSDGSWVVRV,3.37
5,IRLVDDAFPKICHMVSDGSWVVRV,3.75
6,IRLVDDAFMKICHMVSDGSWVVRV,2.96
7,IRLVDDAFKKICHMVSDGSWVVRV,1.85
8,IRLVDDAFRKICHMVSDGSWVVRV,2.17
9,IRLVDDAFEKICHMVSDGSWVVRV,1.14
10,KRLVDDAFGKICHMVSDGSWVVRV,3.49
11,FRLVDDAFGKICHMVSDGSWVVRV,4.01
12,TRLVDDAFGKICHMVSDGSWVVRV,3.21
13,NRLVDDAFGKICHMVSDGSWVVRV,3.6
14,ARLVDDAFGKICHMVSDGSWVVRV,2.67
15,MRLVDDAFGKICHMVSDGSWVVRV,3.29
16,CRLVDDAFGKICHMVSDGSWVVRV,2.39
17,YRLVDDAFGKICHMVSDGSWVVRV,2.87
18,QRLVDDAFGKICHMVSDGSWVVRV,3.89
19,ERLVDDAFGKICHMVSDGSWVVRV,2.77
20,PRLVDDAFGKICHMVSDGSWVVRV,2.78
21,HRLVDDAFGKICHMVSDGSWVVRV,3.54

# Variants of: B2
# Assay: as above
# Conditions: c terminus: a fixed tail appended
row,Variant,protein stability index
1,RTHTGEKPYTCSVCGKSFSRTTCV,3.06
2,RTHTGEKPYTCSVCGKSFSRTTCW,2.8
3,RTHTGEKPYTCSVCGKSFSRTTCY,2.48
4,RTHTGEKPYTCSVCGKSFSRTTCT,3.08
